Test results taken from patent US20090238836.

What was measured:
[1] = target: T1, FoxO3a (NP-963853), substrate peptide from a peptide library, O43524
T1 chain: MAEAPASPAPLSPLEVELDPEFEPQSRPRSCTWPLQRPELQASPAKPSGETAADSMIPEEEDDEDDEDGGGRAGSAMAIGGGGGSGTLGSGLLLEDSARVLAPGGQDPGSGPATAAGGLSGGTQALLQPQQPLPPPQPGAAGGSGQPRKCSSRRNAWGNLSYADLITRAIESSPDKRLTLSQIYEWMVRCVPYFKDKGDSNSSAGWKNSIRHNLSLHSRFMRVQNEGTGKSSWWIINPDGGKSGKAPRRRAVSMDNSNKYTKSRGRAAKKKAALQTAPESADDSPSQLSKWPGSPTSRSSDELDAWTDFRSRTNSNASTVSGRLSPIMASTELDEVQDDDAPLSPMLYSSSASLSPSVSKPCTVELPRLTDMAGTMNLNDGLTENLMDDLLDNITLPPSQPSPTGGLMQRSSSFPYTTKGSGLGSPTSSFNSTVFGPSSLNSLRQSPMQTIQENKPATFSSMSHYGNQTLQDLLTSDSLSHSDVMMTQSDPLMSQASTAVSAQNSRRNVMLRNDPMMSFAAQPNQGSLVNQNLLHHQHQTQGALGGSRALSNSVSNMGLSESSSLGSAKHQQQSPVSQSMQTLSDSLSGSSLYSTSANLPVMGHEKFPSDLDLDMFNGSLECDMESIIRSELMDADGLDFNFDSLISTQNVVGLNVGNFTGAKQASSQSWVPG

[2] = target: T2, RBL2 (NM-005611), substrate peptide from a peptide library, Q08999
T2 chain: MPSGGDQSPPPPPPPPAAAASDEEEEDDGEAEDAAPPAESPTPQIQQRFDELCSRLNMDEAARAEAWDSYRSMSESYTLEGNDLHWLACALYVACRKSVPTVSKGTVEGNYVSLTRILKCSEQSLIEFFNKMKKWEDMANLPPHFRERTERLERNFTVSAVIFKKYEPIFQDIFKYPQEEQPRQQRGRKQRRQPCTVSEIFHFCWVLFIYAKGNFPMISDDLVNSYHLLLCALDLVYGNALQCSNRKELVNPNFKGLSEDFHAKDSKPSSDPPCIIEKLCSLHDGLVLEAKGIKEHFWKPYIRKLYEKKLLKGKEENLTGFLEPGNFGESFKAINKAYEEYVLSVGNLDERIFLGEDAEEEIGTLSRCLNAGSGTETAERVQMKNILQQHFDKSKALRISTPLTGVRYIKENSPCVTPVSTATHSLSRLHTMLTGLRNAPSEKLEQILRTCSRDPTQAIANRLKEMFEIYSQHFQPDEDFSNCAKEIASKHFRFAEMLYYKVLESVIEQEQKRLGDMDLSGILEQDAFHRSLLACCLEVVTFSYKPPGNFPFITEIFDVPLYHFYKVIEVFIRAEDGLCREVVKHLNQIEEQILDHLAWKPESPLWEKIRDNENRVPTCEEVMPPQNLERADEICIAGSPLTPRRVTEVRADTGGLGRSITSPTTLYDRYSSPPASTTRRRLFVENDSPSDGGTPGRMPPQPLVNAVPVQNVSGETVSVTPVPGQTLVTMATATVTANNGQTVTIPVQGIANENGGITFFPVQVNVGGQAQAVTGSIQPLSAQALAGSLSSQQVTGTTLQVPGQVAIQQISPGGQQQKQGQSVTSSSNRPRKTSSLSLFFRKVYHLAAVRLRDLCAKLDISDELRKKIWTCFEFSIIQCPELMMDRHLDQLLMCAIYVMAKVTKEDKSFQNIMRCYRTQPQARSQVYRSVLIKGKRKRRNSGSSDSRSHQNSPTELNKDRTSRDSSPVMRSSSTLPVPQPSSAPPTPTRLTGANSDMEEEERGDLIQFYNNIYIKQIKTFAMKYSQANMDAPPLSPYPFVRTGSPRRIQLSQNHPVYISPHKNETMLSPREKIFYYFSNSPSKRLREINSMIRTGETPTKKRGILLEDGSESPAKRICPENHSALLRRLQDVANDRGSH

B1: human Hip kinase 4 (HipK4), recombinant, expressed in Sf9 insect cells (protein)
chain: MSTIQSETDCYDIIEVLGKGTFGEVAKGWRRSTGEMVAIKILKNDAYRNRIIKNELKLLHCMRGLDPEEAHVIRFLEFFHDALKFYLVFELLEQNLFEFQKENNFAPLPARHIRTVTLQVLTALARLKELAIIHADLKPENIMLVDQTRCPFRVKVIDFGSASIFSEVRYVKEPYIQSRFYRAPEILLGLPFCEKVDVWSLGCVMAELHLGWPLYPGNNEYDQVRYICETQGLPKPHLLHAACKAHHFFKRNPHPDAANPWQLKSSADYLAETKVRPLERRKYMLKSLDQIETVNGGSVASRLTFPDREALAEHADLKSMVELIKRMLTWESHERISPSAALRHPFVSMQQLRSAHETTHYYQLSLRSYRLSLQVEGKPPTPVVAAEDGTPYYCLAEEKEAAGMGSVAGSSPFFREEKAPGMQRAIDQLDDLSLQEAGHGLWGETCTNAVSDMMVPLKAAITGHHVPDSGPEPILAFYSSRLAGRHKARKPPAGSKSDSNFSNLIRLSQVSPEDDRPCRGSSWEEGEHLGASAEPLAILQRDEDGPNIDNMTMEAERPDPELFDPSSCPGEWLSEPDCTLESVRGPRAQGLPPRRSHQHGPPRGATSFLQHVTGHH
- phosphorylation of library peptides (HTS kinase assay, streptavidin-SPA beads) [1]: The proteins identified as HipK4 substrates with the aid of such an experimental approach are the following, inter alia; FoxO3a (NP-963853) and RBL2 (NM-005611)
- phosphorylation of library peptides (HTS kinase assay, streptavidin-SPA beads) [2]: The proteins identified as HipK4 substrates with the aid of such an experimental approach are the following, inter alia; FoxO3a (NP-963853) and RBL2 (NM-005611)
